Data published in US20090233868.

Assays:
[1] = target: T1, LaR2C peptide (24-mer, La 174-197) (Homo sapiens) (UniProt P05455); test: inhibition; conditions: inhibition of HCV IRES translation in rabbit reticulocyte lysate
T1 sequence: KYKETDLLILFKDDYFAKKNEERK

[2] = test system: T2, LaR2C-N7 (La 174-180) (Homo sapiens); test: inhibition; conditions: inhibition of HCV IRES translation in rabbit reticulocyte lysate; rescued by La
T2 sequence: KYKETDL

“HCV IRES-luciferase monocistronic RNA (uncapped)” gave an IC50 [1] of 30 µM and an IC50 [2] of 40 µM.
